From PMC11921379, “TK2268 encodes the major aminotransferase involved in the conversion from oxaloacetic acid to aspartic acid in Thermococcus kodakarensis” (Applied and Environmental Microbiology, 2025)
Each block holds one molecule with its values, some of them ahead of it.

Assays:
TK2268p (TK2268 protein) = target: T1, TK2268p (TK2268 protein) (Thermococcus kodakarensis, UniProt Q5JHU0); experiment: initial velocity, HPLC after o-phthalaldehyde derivatization; substrate inhibition fit; type: biochemical; conditions: substrate inhibition constant, second site (second substrate binding to enzyme-substrate complex), 20 µM PLP, 50 mM HEPES pH 7.5, 80°C
T1 construct: full-length, C-terminal His6-tag, overexpressed homologously in T. kodakarensis, His GraviTrap and gel filtration
Description: (§1) initial velocity, HPLC after o-phthalaldehyde derivatization; substrate inhibition fit on TK2268p (TK2268 protein)

purified protein [1] = substrate: N[C@@H](CC(=O)O)C(=O)O; experiment: purified protein; conditions: amino donor, 10 mM 2-oxoglutarate, 20 µM PLP, 50 mM HEPES pH 7.5, 80°C
purified protein [2] = substrate: O=C(O)CC(=O)C(=O)O; experiment: purified protein; type: biochemical, Thermococcus kodakarensis; conditions: amino acceptor, 4 mM glutamate, 20 µM PLP, 50 mM HEPES pH 7.5, 80°C, substrate inhibition model, Ks1 described as dissociation constant of first substrate
[3] = substrate: O=C(O)CCC(=O)C(=O)O; experiment: initial velocity, HPLC after o-phthalaldehyde derivatization; substrate inhibition fit; type: biochemical, Thermococcus kodakarensis; conditions: amino acceptor, 10 mM Asp, 20 µM PLP, 50 mM HEPES pH 7.5, 80°C, substrate inhibition model, Ks1 described as dissociation constant of first substrate
Description: as §1

[4] = substrate: N[C@@H](CCC(=O)O)C(=O)O; experiment: initial velocity, HPLC after o-phthalaldehyde derivatization; type: biochemical, Thermococcus kodakarensis; conditions: amino donor, 10 mM oxaloacetate, 20 µM PLP, 50 mM HEPES pH 7.5, 80°C
Description: initial velocity, HPLC after o-phthalaldehyde derivatization on TK2268p (TK2268 protein)

Km (TK2268p (TK2268 protein); 10 mM Asp): 5.9 ± 1.6 mM
Molecule: O=C(O)CCC(=O)C(=O)O [2-OG, 2-oxoglutarate]

Km (TK2268p (TK2268 protein); 4 mM glutamate): 13.2 ± 1.2 mM
Molecule: O=C(O)CC(=O)C(=O)O [OAA, oxaloacetate]

B1: TK2268p (TK2268 protein) (Thermococcus kodakarensis KOD1) (protein)
chain: MRYKKRKYFMAGRINILQRSKIRELFEKASKMENVISLGIGEPDFDTPEVIKEAAKRAIDEGYTHYTPNAGIPEFREAIAEYYKEFYNVDVDMNNIIVTAGAYEATYLAFESILEQGDDVIIPDPAFVCYVEDAKIAEAGIIRIPLREENKFRIDPDELLEAITKRTRMIVMNYPNNPTGAIMKKDVAKAIADIAQDYNIYILSDEPYEHFLYEGARHHPMIKYAPDNTILANSFSKTFAMTGWRLGFAIAPEQVIRDMIKLHAYVIGNVTSFIQIAGITALRDKRSWEAVERMRQVYDERRKLVLKYLNDMPHITPFRPKGAFYIWAKIDPELDMTSEDFAEWLLENAGVVVIPGTAFGRQGEGWIRISYATEKEKLIEAMERMKEALSKL
notes: full-length, C-terminal His6-tag, overexpressed homologously in T. kodakarensis, His GraviTrap and gel filtration
Km (purified protein [1]): 10.3 ± 0.5 mM
Vmax (purified protein [1]): 232 µmol/min/mg
kcat (purified protein [1]): 175 s⁻¹
kcat/Km (purified protein [1]): 17000 M⁻¹ s⁻¹
Km (purified protein [2]): 1.3 ± 0.1 mM
Vmax (purified protein [2]): 360 µmol/min/mg
kcat (purified protein [2]): 270 ± 16 s⁻¹
kcat/Km (purified protein [2]): 208000 M⁻¹ s⁻¹
Km [3]: 38.8 ± 9.6 mM
Vmax [3]: 1040 ± 230 µmol/min/mg
kcat [3]: 781 ± 244 s⁻¹
kcat/Km [3]: 20100 M⁻¹ s⁻¹
Km [4]: 3.4 ± 0.3 mM
Vmax [4]: 443 µmol/min/mg
kcat [4]: 333 ± 12 s⁻¹
kcat/Km [4]: 97800 M⁻¹ s⁻¹
